# In patent US20240043507A1 (RQ BIOTECHNOLOGY, published 2024):
# Several values for one entry are separate records, joined by “and”; a condition that tells them apart may be missing. Identical values can stand only once.
# B1: antibody 269 (antibody, V domains shown)
# VH: QVQLVESGGGLIQPGGSLRLSCAASGLTVNRNYMSWIRQAPGKGLEWVSVIYSGGSTFYADSVKGRFTISRDNSKNTLSLQMNSLRAEDTAIYYCARDFYEGSFDIWGQGTMVTVSS
# VL: AIQLTQSPSFLSASIGDRVTITCRASQGISSYLAWYQQKPGKAPKLLIYAASTLQSGVPSRFSGSGSGTEFTLTISSLQPEDFASYYCQQLNSYPAPVFGPGTKVDIK
# notes: also called mAb 269
# B2: antibody 170 (antibody, V domains shown)
# VH: QVQLVESGAEVKKPGESLKISCKGSGYSFTSYWIVWVRQMPGKGLEWMGIIYPGDSDTKYSPSFQGQVSISADKPISTAYLQWSRLKASDTAMYYCARLGNWLVDYWGQGTLVTVSS
# VL: DIVMTQSPLSLSVTPGQPASISCKSSQSLLHSDGKTYLYWYLQKPGQPPQLLMYEVSNRFSGVPDRFSGSGSGTDFTLKISRVESEDVGVYYCMQSIQLPRGITFGQGTRLEIK
# B3: antibody 278 (antibody, V domains shown)
# VH: QVQLVQSGAEVKKPGASVKVSCKASGYIFIRYGISWVRQAPGQGLEWMGWISANNGYTNYAQKLQGRVTMTTDTSTSTAYMELRSLRSDDTAVYYCARDGGILTGYLDYFDHWGQGTLVTVSS
# VL: DIQMTQSPSSLSASVGDRLTITCRASQSIASYLNWYQQKPGKAPKLLIYAASSLQSGVPSRFSGSGSGTDFTLTISSLQPEDFATYHCQQSYSTLGITFGPGTKVDIK
# notes: also called mAb 278
# B4: antibody 150 (antibody, V domains shown)
# VH: QVQLVESGGGLIQPGGSLRLSCAASGVTVSSNYMSWVRQAPGKGLEWVSIIYSGGTTYYADSVKGRFTISRDSSMNTLYLQMNSLRAEDTAVYYCARDLMVYGIDVWGQGTTVTVSS
# VL: EIVMTQSPSSLSASVGDRVTITCRASQGISSYLAWYQQKPGKAPKLLIYAASTLQSGVPSRFSGSGSGTDFTLTISSLQPEDFATYYCQQLDSYPPGYTFGQGTKVDIK
# B5: antibody 58 (antibody, V domains shown)
# VH: QVQLVESGGGLVQPGRSLRLSCAASGFTFDDYAMHWVRQPPGKGLEWVSGVSWNSGTIGYADSVKGRFIISRDNAKNSLYLQMNSLKAEDTALYYCAREVGGTFGVLISREGGLDYWGQGTLVTVSS
# VL: SYELTQPPSVSVAPGQTARITCGGNTIGSKSVHWYQQRPGQAPVLVVYDDSDRPSGIPERFSGSNSGNTATLTISRVEAGDEADYYCQVWDSSSDRVVFGGGTKLTVL
# notes: also called mAb 58
# B6: antibody 88 (antibody, V domains shown)
# VH: QLQLQESGPGLVKPSQTLSLTCTVSGGSISSGSYNWTWIRQPAGKGLEWIGRIYNSGSTNYNPSLKSRVTISVDTSKNQLSLKVRSVTAADTAVYYCARHCSGGTCYPKYYYGMDVWGQGTTVTVSS
# VL: QSALTQPPSVSEAPRQRVTISCSGSSSNIGNNAVNWYQQFPGKAPKLLIYYDDLLPSGVSDRFSGSKSGTSASLAISGVQSEDEADYYCAAWDDSLNVVVFGGGTKLTVL
# notes: also called mAb 88
# B7: antibody 158 (antibody, V domains shown)
# VH: EVQLLESGGDLIQPGGSLRLSCAASGVTVSSNYMSWVRQAPGKGLEWVSIIYPGGSTFYADSVKGRFTISRDNSKNTLYLQMHSLRAEDTAVYYCARDLGSGDMDVWGKGTTVTVSS
# VL: DIVMTQSPSFLSASVGDRVTITCRASQGISSYLAWYQQKPGKAPKLLIQAASTLQSGVPSRFSGSGSGTEFTLTISSLQPEDFATYYCQQLNSYRYTFGQGTKVEIK
# notes: also called mAb 158
# B8: antibody 222 (antibody, V domains shown)
# VH: EVQLVESGGGLIQPGGSLRLSCAASGLTVSSNYMSWVRQAPGKGLEWVSVIYSGGSTFYADSVKGRFTISRDNSKNTLYLQMNSLGAEDTAVYYCARGEGSPGNWFDPWGQGTLVTVSS
# VL: DVVMTQSPGTLSLSPGERATLSCRASQSVPSSYLAWYQQKPGQAPRLLIYGASTRATGIPDRFSGSGSGTDFTLTISRLEPEDFAVYYCQHYDTSPRFGGGTKVDIK
# B9: antibody 253H165L (antibody, V domains shown)
# VH: not shown
# VL: DIVMTQSPGTLSLSPGERATLSCRASQSVRSSYLAWYQQKPGQAPRLLIYGASRRGTGIPDRFSGSGSGTDFTLTISRLEPEDFAVYYCQQYGSSPWTFGQGTKVEIK
# B10: antibody 165 (antibody, V domains shown)
# VH: QVQLVQSGPEVKKPGTSVKVSCKASGFTFTSSAVQWVRQARGQRLEWIGWIVVGSGNTNYAQKFQESVTITRDMSTSTAYMELSSLRSEDTAVYYCAAPHCIGGSCHDAFDIWGQGTMVTVSS
# VL: B9 VL
# notes: also called mAb 165
# B11: antibody 175 (antibody, V domains shown)
# VH: EVQLVESGGGLIQPGGSLRLSCAASGLTVSRNYMSWVRQAPGKGLEWVSLIYSGGSTYYADSVKGRFTISRDNSKNTLYLQMNSLRAEDTAVYYCARDLRGEVWGQGTMVTVSS
# VL: not shown
# notes: also called mAb 175
# B12: antibody 132 (antibody, V domains shown)
# VH: QVQLQQWGAGLLKPSETLSLTCAVYGGSFSGYYWSWIRQPPGKGLEWIGEINHSGSTNYNPSLKSRVTISVDTSKNQFSLKLSSVTAADTAVYYCARTDYYDSIDWGQGTLVTVSS
# VL: QSVLTQEPSLTVSPGGTVTLTCGSSTGAVTSGHYPYWFQQKPGQVPRTLIYDTRNKHSWTPARFSGSLLGGKAALTLSGAQPEDEAEYYCLLSSSGARVFGGGTKLTVL
# Target: spike protein of SARS-CoV-2 strain B.1.1.7 (SARS-CoV-2, UniProt P0DTC2 14-1273)
# Assay: cell-based or functional assay
Binder,IC50 (FRNT neutralisation),FRNT50 ratio B.1.1.7/Victoria
B1,> 10 µg/mL,
B2,0.105 µg/mL,4.2
B3,0.307 µg/mL,
B4,0.139 µg/mL,12
B5,0.116 µg/mL,
B6,0.058 µg/mL,
B7,0.254 µg/mL,
B8,0.014 µg/mL and 0.011 µg/mL,
B9,0.006 µg/mL,
B10,0.212 µg/mL,
B11,0.575 µg/mL,
B12,0.337 µg/mL,7

# Target: spike protein of SARS-CoV-2 strain B.1.351 (SARS-CoV-2, UniProt P0DTC2 14-1273)
# Assay: cell-based or functional assay
Binder,IC50 (FRNT neutralisation),FRNT50 ratio B.1.351/Victoria
B1,> 10 µg/mL,
B2,> 10 µg/mL,> 402
B3,0.16 µg/mL,
B4,0.35 µg/mL,30
B5,0.136 µg/mL,
B6,> 10 µg/mL,
B7,> 10 µg/mL,
B8,0.017 µg/mL and 0.016 µg/mL,
B9,0.013 µg/mL,
B10,0.054 µg/mL,
B11,> 10 µg/mL,
B12,> 10 µg/mL,> 208

# Target: spike protein of SARS-CoV-2 strain P.1 (SARS-CoV-2, UniProt P0DTC2 14-1273)
# Assay: cell-based or functional assay
Binder,IC50 (FRNT neutralisation),FRNT50 ratio P.1/Victoria
B1,> 10 µg/mL,
B2,> 10 µg/mL,> 402
B3,0.245 µg/mL,
B4,0.04 µg/mL,3.4
B5,0.236 µg/mL,
B6,> 10 µg/mL,
B7,> 10 µg/mL,
B8,0.008 µg/mL and 0.009 µg/mL,
B9,0.019 µg/mL,
B10,0.241 µg/mL,
B11,3.88 µg/mL,
B12,> 10 µg/mL,> 208

# Target: spike protein of SARS-CoV-2 strain Victoria (SARS-CoV-2/human/AUS/VIC01/2020) (SARS-CoV-2, UniProt P0DTC2 14-1273)
# Assay: cell-based or functional assay
row,Binder,IC50 (FRNT neutralisation)
1,B1,0.03 µg/mL
2,B2,0.025 µg/mL
3,B3,0.014 µg/mL
4,B4,0.012 µg/mL
5,B5,0.041 µg/mL
6,B6,0.033 µg/mL
7,B7,0.031 µg/mL
8,B8,0.019 µg/mL and 0.017 µg/mL
9,B9,0.003 µg/mL
10,B10,0.034 µg/mL
11,B11,0.026 µg/mL
12,B12,0.048 µg/mL
